{"source": "patent US20200270588A1", "about": "“GLUCOSYL TRANSFERASE POLYPEPTIDES AND METHODS OF USE” (Syngenta Participations AG, priority 2017, published 2020)", "molecules": {"B1": {"name": "bx9 w/t: wild type Zea mays bx9 glucosyl transferase, C-terminally his-tagged SEQ ID NO: 1 (protein)", "chain": "MASSRTGAGAGGRVVVFPFPFQGHFNPVMRLARALHARGLAITVFHSGALDPADYPADYRFVPVTVEADPKLLASEDIAAIVTTLNASCDAPFRARLSALLAAEGRDSVRCVFTDVSWNAVLTASSDLGVPALGMMTASAASLRDYMAYRTLIDKGYLPVKEERKEDPVPELPPYLVKDLLRVDTSDLEEFAELLARTVTAARRASGLIFNTFPLIETDTLAEIHKALSVPVFAVAPLNKLVPTATASLHGVVQADRGCLQWLDTQQPGSVLYVSFGSMAAMDPHEFVELAWGLADSKRPFVWVVRPNLIRGFESGALPDGVEDEVRGRGIVVAWAPQEEVLAHPAVGGFLTHNGWNSTVEAISEGVPMVCCPRHGDQFGNMRYVCDVWKVGTELVGEQLERGQVKAAIDRLFGTKEGEEIKERMKEFKIAAAKGIGIGVDVDETASPRTDLTDLVDLIKSF", "modifications": "C-terminal His tag; Zea mays"}, "B2": {"name": "M279F, H375Y: mutant combination of bx9 SEQ ID NO:1 (protein)", "chain": "B1 chain with M279F, H375Y", "modifications": "Zea mays"}, "B3": {"name": "A432L: bx9 SEQ ID NO:1 mutant (protein)", "chain": "B1 chain with A432L", "modifications": "Zea mays"}, "B4": {"name": "M279F, H375F: mutant combination of bx9 SEQ ID NO:1 (protein)", "chain": "B1 chain with M279F, H375F", "modifications": "Zea mays"}, "B5": {"name": "M279F, E339A, H375Y: mutant combination of bx9 SEQ ID NO:1 (protein)", "chain": "B1 chain with M279F, E339A, H375Y", "modifications": "Zea mays"}, "B6": {"name": "M279W, H375Y: mutant combination of bx9 SEQ ID NO:1 (protein)", "chain": "B1 chain with M279W, H375Y", "modifications": "Zea mays"}, "B7": {"name": "S117G, M279W, E339A: mutant combination of bx9 SEQ ID NO:1 (protein)", "chain": "B1 chain with S117G, M279W, E339A", "modifications": "Zea mays"}, "B8": {"name": "S117G: bx9 SEQ ID NO:1 mutant (protein)", "chain": "B1 chain with S117G", "modifications": "Zea mays"}, "B9": {"name": "S117G, M279W, E339V: mutant combination of bx9 SEQ ID NO:1 (protein)", "chain": "B1 chain with S117G, M279W, E339V", "modifications": "Zea mays"}}, "note": "Positions count from the first letter of the chain named. Numbers in names are those of the source."}
{"experiment": "UDP luminescence plate assay of E. coli extracts, mutants of SEQ ID No: 1, 2 mM metribuzin", "format": "biochemical, Zea mays", "settings": "2 mM metribuzin", "procedure": "(§1) Optionally plate assays are stopped with brief heating to 95 C before returning to ice and addition of UDP-Glo detection reagent followed by incubation at lab temperature. […] In addition a UDP standard curve is run alongside each set of plate tests.\n(§2) Assays were carried out on extracts of E. coli BL21 DE3 expressing the various C-terminally his-tagged library variants of SEQ ID NO:1 at the amino acid positions listed in Table 11 as described in Example 2 except, in this case, with 2 mM metribuzin in place of herbicide V.\n(§3) Thus the ratio of the metribuzin to DMSO signal as well as the increase in signal relative to the w/t bx9 is used to help distinguish those mutations most likely to offer the highest activity to metribuzin. A follow up assay monitored by, for example, LC MS is one method to distinguish these cases more quantitatively."}
{"molecule": "B1", "SIGNAL: metribuzin signal of mutant divided by metribuzin signal of w/t bx9": 1.00}
{"molecule": "B2", "factor of increased signal relative to the bx9 w/t control signal (first parentheses)": 5.0, "ratio of activity with metribuzin relative to activity with DMSO (second parentheses)": 6.0}
{"molecule": "B3", "factor of increased signal relative to the bx9 w/t control signal (first parentheses)": 6, "ratio of activity with metribuzin relative to activity with DMSO (second parentheses)": 1.30}
{"molecule": "B4", "factor of increased signal relative to the bx9 w/t control signal (first parentheses)": 5.0, "ratio of activity with metribuzin relative to activity with DMSO (second parentheses)": 4.0}
{"molecule": "B5", "factor of increased signal relative to the bx9 w/t control signal (first parentheses)": 7.5, "ratio of activity with metribuzin relative to activity with DMSO (second parentheses)": 7.0}
{"molecule": "B6", "factor of increased signal relative to the bx9 w/t control signal (first parentheses)": 4.0, "ratio of activity with metribuzin relative to activity with DMSO (second parentheses)": 5.0}
{"molecule": "B7", "factor of increased signal relative to the bx9 w/t control signal (first parentheses)": 5.0, "ratio of activity with metribuzin relative to activity with DMSO (second parentheses)": 6.5}
{"molecule": "B8", "SIGNAL: metribuzin signal of mutant divided by metribuzin signal of w/t bx9": 1.26}
{"molecule": "B9", "factor of increased signal relative to the bx9 w/t control signal (first parentheses)": 7.5, "ratio of activity with metribuzin relative to activity with DMSO (second parentheses)": 5.0}
{"experiment": "UDP luminescence plate assay of E. coli extracts, mutants of SEQ ID No: 1, 2 mM metribuzin", "format": "biochemical, Zea mays", "settings": "2 mM metribuzin, 5 ul diluted extract, 40 minutes; DMSO control ~2.3E6, H24A ~1.7E6", "procedure": "as §1, §2, §3"}
{"molecule": "B1", "UDP-Glo luminescence signal": "~3.4 E6"}
{"experiment": "UDP luminescence plate assay of E. coli extracts, mutants of SEQ ID No: 1, 2 mM metribuzin", "format": "biochemical, Zea mays", "settings": "2 mM metribuzin; H24A null background 1.00E+05 not subtracted", "procedure": "as §1, §2, §3"}
{"molecule": "B1", "luminescence signal with metribuzin": "1.23E+05"}
{"molecule": "B8", "luminescence signal with metribuzin": "1.56E+05"}
{"experiment": "UDP luminescence plate assay of E. coli extracts, mutants of SEQ ID No: 1, 2 mM metribuzin", "format": "biochemical, Zea mays", "settings": "2 mM metribuzin; relative to bx9 w/t", "procedure": "as §1, §2, §3"}
{"molecule": "B1", "SIGNAL: metribuzin signal of mutant divided by the signal of w/t bx9": 1.00}
{"molecule": "B8", "SIGNAL: metribuzin signal of mutant divided by the signal of w/t bx9": 1.07}
{"experiment": "UDP luminescence plate assay of E. coli extracts, mutants of SEQ ID No: 1, 2 mM metribuzin", "format": "biochemical, Zea mays", "settings": "mutants of SEQ ID No: 1; DMSO in place of metribuzin (background UDP-glucose hydrolysis)", "procedure": "as §1, §2, §3"}
{"molecule": "B1", "luminescence signal in the DMSO control": "2.76E+05"}
{"molecule": "B8", "luminescence signal in the DMSO control": "2.41E+05"}
{"experiment": "UDP luminescence plate assay of E. coli extracts, mutants of SEQ ID No: 1, 2 mM metribuzin", "format": "biochemical, Zea mays", "settings": "mutants of SEQ ID No: 1 in E. coli extracts; 2 mM metribuzin; UDP luminescence", "procedure": "as §1, §2, §3"}
{"molecule": "B1", "luminescence signal observed with 2 mM metribuzin": "2.80E+05"}
{"molecule": "B8", "luminescence signal observed with 2 mM metribuzin": "3.00E+05"}
